{"source": "a protein production outcome set (Wang et al. 2014)"}
{"test": "label from the status in PepcDB records"}
{"sequence": "AAKQDVKVFSEDGTSKVVEILADMTARDLCQLLVYKSHCVDDNSWTLVEHHPHLGLERCLEDHELVVQVESTMASESKFLFRKNYAKYEFFK", "protein production": "failed"}
{"sequence": "AALAAKVRTLGPSMTRSMQRVAEAVAGDPAGCAALTVTGLAELTGTSEATVVRTARLLGYPGYRDLRLALAGLAAQQQSGRAPAITTDIAVDDPIADVVAKLAYDEQQTL", "protein production": "failed"}
{"sequence": "AAPPAPAAKPGSPKKRGKTEVNESLLTPRFYTTDFDEMEQLFNAEINKQLNQDEFDALLQEFKTDYNQTHFIRNPEFKEAADKMQGPLRQIFVEFLERSCTAEFSGFLLYKELGRRLKKTNPVVAEIFSLMSRDEARHAGFLNKGLSDFNLALDLGFLTKARKYTFFKPKFIFYATYLSEKIGYWRYITIFRHLKANPEYQVYPIFKYFENWCQDENRHGDFFSALLKAQPQFLNDWKAKLWSRFFCLSVYITMYLNDCQRSAFYEGIGLNTKEFDMHVIYETNRTTARIFPAVPDVENPEFKRKLDRMVDINLKIISIGESNDLPLVKNLKRVPLIAQLVSEIIAAYLMPPIESGSVDFAEFEPKLVY", "protein production": "failed"}
{"sequence": "AAQEKVVKLKIVQTSDVHGNYYPYNFITRKDWQGSLARIYAFVEKEREQYKENLILLDNGDILQGQPTAYYYNYIDTVSPHLCAEMMNYMKYDAGNMGNHDVETGRAVFDRWINTCDFPVLGANIIDISTGEPHLPPYKVMERDGVKIVILGMITPAIPAWLSENLWKGLRFDDMEETARKWMKIIREKENPDLMIGLFHAGQEAFKMSGKYNENASLSVAKNVPGFDIVLMGHDHARECKKVMNVAGDSVLVIDPASNGIVLSNIDVTLKLKDGKVRSKDIKGVLTETKDYGISEDFMKNFAPQYDTVRNFVSK", "protein production": "failed"}
{"sequence": "AAQGFVFNLDNPIFKDRRVREALSLLWDFDWINRRVMRNFYVREQSYFPKSDMAATELPTPAELKILEPLRGQVPDEVFTTVYQPPKTDGSGYIRDKQLQALKLLAEAGWHPKNNKLVNAAGEPMVFSFLDGQGGFDRLILPFKRTLAQIGITLDFLRIDSAQYINRLNARDYDMIVVSLPKNGNPIISPGRELYNLYGSQSATEVGSSNAMVLRNPAVDTLIDGLVSANTRNDMVLYARALDRVLQWGYYMIPNYYSK", "protein production": "failed"}
{"sequence": "ADIVNLQGVTGGNTYSVPAVTMDLLSGKDVAVEEFPRKLLTFKEKLGEGQFGEVHLCEVEGMEKFKDKDFALDVSANQPVLVAVKMLRADANKNARNDFLKEIKIMSRLKDPNIIHLLAVCITDDPLCMITEYMENGDLNQFLSRHEPPNSSSSDVRTVSYTNLKFMATQIASGMKYLSSLNFVHRDLATRNCLVGKNYTIKIADFGMSRNLYSGDYYRIQGRAVLPIRWMSWESILLGKFTTASDVWAFGVTLWETFTFCQEQPYSQLSDEQVIENTGEFFRDQGRQTYLPQPAICPDSVYKLMLSCWRRDTKNRPSFQEIHLLLLQQGDE", "protein production": "failed"}
{"sequence": "AELQQTEKASAKKQDKAEIRNVIVMIGDGMGTPYIRAYRSMKNNGDTPNNPKLTEFDRNLTGMMMTHPDDPDYNITDSAAAGTALATGVKTYNNAIGVDKNGKKVKSVLEEAKQQGKSTGLVATSEINHATPAAYGAHNESRKNMDQIANSYMDDKIKGKHKIDVLLGGGKSYFNRKNRNLTKEFKQAGYSYVTTKQALKKNKDQQVLGLFADGGLAKALDRDSKTPSLKDMTVSAIDRLNQNKKGFFLMVEGSQIDWAAHDNDTVGAMSEVKDFEQAYKAAIEFAKKDKHTLVIATADHTTGGFTIGANGEKNWHAEPILSAKKTPEFMAKKISEGKPVKDVLARYANLKVTSEEIKSVEAAAQADKSKGASKAIIKIFNTRSNSGWTSTDHTGEEVPVYAYGPGKEKFRGLINNTDQANIIFKILKTGK", "protein production": "failed"}
{"sequence": "AEVDQATKPAEAKYYIAGTITDATTGQELTTAKVTLGDKSVTSSFNEQVNYKAEGYALVVSADGYYPVKRQVYLNQVSDGQTSVATVNVALVSVEAAVIPPVVPPTDPETDINEGEATKVADKAVEVAKPSESTVTDMLAGTTATPEEKKALDETLEMAGGMKVGETTPEVLADGSILAITPVKFTNPIQDAPAMVPYFYNEGCELTGDVKEVAAPVTRADGAVAADIQKAFLSNAAKALNMNAGFVQKIGYTRISVLNGYSILGYTIKGQLVSKKLTFLISGKYYEGIVSYQKSVMIYPNYYSHDSHDSHDSHGFNPNAGGGSND", "protein production": "not failed"}
{"sequence": "AFLNKHFAKKNHNISVDELSHALELTDKAELTEENNILEGIIRFGGETAKEVMTSRLDVVDLDIRTPFKDVIQCIIDNAYSRIPIYSGTRDNIKGVLYIKDLLPHLNKGDNFRWQSLIRPAYFVPETKMIDDLLRDFQANKIHIAIVVDEFGGTSGIVTMEDIIEEIVGEIHDEYDD", "protein production": "not failed"}
{"sequence": "AGKQNEVELVAEKQLAFPLDEQTYYLSKSMFQFEENGKEYLHFENTQKSLYDIVIFDIENQQIAKRIPLHKTGPNGLPAVFGSRPSPDSQYILVAQNNISRLSSINSQGEIIRNYNFQTPEGRFTPLSFGSYYNAPAFIKDSCIFLRQEILKPDMKKEDWPRTHMFASQDLRTGEVKWIPIFYPPIFKEEYDNIAGGYGFSYDYNYKESRLVCGFFGYDSLMVTDDLKHIRWYNAKSRYLKSMKPKLGNSMEGINAIIKLNENPRYWHIMYDKYRNVYYRFAEMPYKLAPNESPYETPKGKEFSVIVLNADFEIIGETKFPGKKYFYKMSFVGREGLYISENNLENPQFDENKLVFTCFKIKNASPNK", "protein production": "not failed"}
{"sequence": "AGVSDTAASVCITITAPSKAWNIAGLKCAQIIFSNPSDAEHWQQLSPVIKDGASTLGLIAAEAAYRYGTDFLNQEVAYLKNNHDFLLHEIPKRIPGAKITPMQATYLMWIDFRDTTIEGSPSEFFIEKAKVAMNDGAWFGEDGTGFCRLNFATSREVLEEAIDRMAKAVSHHT", "protein production": "failed"}
{"sequence": "AHKYKRAEVVQNALLELSHIATQVSSLEEFYLGVHHHLKQLISADNFFIATLDVNSGAISVPFFADEKDAHPSQLYPEQSLSTLLQQGLTGYVFRTGQTLLCDESKVDELVNAEEIVNLGSPCHLWLGVPIKHEDIVTAVLVVQTYDTNVSYGDIEVELMTFICHHITGVMERLKHQEQLEQAIQQ", "protein production": "not failed"}
{"sequence": "AHTKISPLGIDTLCFKVSTNPGQPLQPIAKVASGGELSRISLAIQVITAQKVDTPSLIFDEVDVGISGPTAAVVGKMLRTLGESTQVLCVTHLPQVAGCGHNQLFVAKHTKSGKTETQMRALNLEERVEELARLLGGTQITAHTLANAKELLNAA", "protein production": "failed"}
{"sequence": "AIAASALEQFVNNVRQLSAQGQMTQLCELINKSGELLAKNLSHLDTVLGALDIQEHSLGVLAVLFVKFSMPNIPDFETLFSQVQLFISTCNGEHIRYATDTFAGLCHQLTNALVERKQPLRGISILKQAIDKMQMNTNQLTSVHADLCQLCLLAKCFKPAVPFLELDMMDICKENGAYDAKHFLCYYYYGGMIYTGLKNFERALYFFEQAITTPAMAVSHIMLEAYKKYILVSLILHGKVQQLPKYTSQIVGRFIKPLSNAYHELAQIYATNNPAELRALVNKHSETFTRDNNSGLVKQCLSSLYKKNIQRLTKTFLTLSLQDMASRVQLSGPQEAEKYVLHMIEDGEIYASINQKDGMVCFHDNPEKYNNPAMLHKIDQEML", "protein production": "not failed"}
{"sequence": "AIAASLSDQSGSIGSEQTRPSGAIPVESLPPQALEQLIASLQQEVEQLADALQQLNFANQRWTLCKQSIEAFAEETTRVDLPGAQSRATDAISSTASAKPETSVEVNQNQRLLVPLSRSLYVLGRVINPERCLIDIGTGYHVERKLADAAEFFDRRLKHVRGSMRQLTLKIDQNQQQMQTIREILVRKLAGAQQAAEHT", "protein production": "failed"}
{"sequence": "AIAEALWTNKIEDPLSLMSFTVPPLRLLSAAMWQVTERRQVKHYGMLEEFVSLVTETIPELLNQHQRAQLILGLRARHLLELCRGKHQGSLKEIQPHLKRLCRPRVNKEFADEDMEESEACFLDLVRTLISNPKEKEHYFQNIFPEEYGPKFDKNLHALMEDFLLKLDRMVSVPDLSETVSWLRTCPSLLDDCIDSVSVPKDMKSLLEHHTAKGNLQDSEGNNCTFSSQSLPPLVQVVISSDHTESGEPSDLNGQDNDDEQASKTSSDGWTIKKIKLKTETEEEDNDQNWPITEAKSTGTRDGYDDGCLGEEPNQTQS", "protein production": "failed"}
{"sequence": "AIAPDSLYDSLECLSEKIEAEGLYTTFSSDKLVRRIKRSSETEKIILSRFLRARRFNVDSAFDSFLACLKFREAENVNSVGLDEFKNPLATFPFTTTGFCTFDGEPLLYGRASALDRFKIDPAIFHRGFISFLEFLGDTFEPSTMFVIIFDFTDFSPIRNVHFGCARDMLKVMQDFYPERLSKIFLVNYPSTLYGVYKIVSPFIDENTRSKLEWIPKNSLEQLLRYVSMEAIPYSIGGMAVYPVPPLSSQ", "protein production": "failed"}
{"sequence": "AIAREWKSQDAWKQHSLRLCFGVWPGTEFLHRPRAVHRRSGVVCSQMQTEDSHPETPQVPKESLQEEKDSSPATDASFIQSQDGKTVFLDRRTERRIQRGFVLTERGPRSIWKPAGTSSQRNERVPRRAAARGGAGPPDTTPQLATVRVLVLGANHVAQRLAELLSSHSRVCGCYFVSETTDEAAIESMKKYAYALPLRSALNDDEVVRVAEWVLADYVFLVPTGETHDDGVSLKDKERLERTLAQNRVTFMDENLTGLLLENPSLIDALFRARDSLEA", "protein production": "failed"}
{"sequence": "AIARGHGTYMDEDRLTASVAGQVERVNKLICVKPLKTRYNGEVGDVVVGRITEVQQKRWKVETNSRLDSVLLLSAVNLPGGELRRRSTQDELAMRDYLQEGDLISAEVQSIFSDGALSLHTRSLKYGKLGQGVLVYVSPSLVKRQKTHFHNLPCGASLILGNNGYVWLSPTPALQEEQAGGFYTSMEPVSLSDREVVSRLRNCLLALANQKVLLFDTSVLYCYEASLQHQIKDILKPEIMEEIVLETRQRLMEHEG", "protein production": "not failed"}
{"sequence": "AIASEVSCKKRDDYLEWPEYFMAVAFLSAQRSKDPNSQVGACIVNSENKIVGIGYNGMPNGCSDDVLPWRRTAENKLDTKYPYVCHAELNAIMNKNLTDVKGCSMYVALFPCNECAKLIIQAGIKEVIFMSDKYHDSDEATAARLLFNMAGVTFRKFIPKCSKIVIDFDSINSRPSQKLQ", "protein production": "failed"}
{"sequence": "AIATDCEWFDMTWGSSASSGYCSQSDSDEHELELFYTARTSLRKSRKCRDKDEQSEVDWRKQDLSVTEIQQKVKEYNAQVNSNLFMVLNRDGSYTGFIKVQFKLARPVSLPPPRSVSSSSISSSCLGWDGGCQERTSFYLPRDTVKHLHISSSTRAREVIQALLNKFTVVDNPAKYSLYERSQRDNQVYLRKLADDECPLFLRLCAGPNEKVLSLVLKENETGEVNWDAFSFPELQNFLRILQREEEDHVRQIIRRYTLARDKMKEAMKNFSTPG", "protein production": "failed"}
{"sequence": "AIEVEKNNKGINLSFDIEFYPNSFQILQKEYKKIDLIAKLLEKFKKNNILIEGHTEQFGLEEEMHELSEKRARAIGNYLIKMKVKDKDQILFKGWGSQKPKYPKSSPLKAKNRRVEITILN", "protein production": "not failed"}
{"sequence": "AIKHVKGNGKRTLYIFSDPDCPYCQRLEKELTAVDNVTIYLFLFPLTTLHPNAETIATQIWCSKNQYQAWQDYLLNHKAPTASQKCSTPIQKNLALGQKLNINGTPTMYLKNGERIAGAMQAGQLNTLLDQAQ", "protein production": "failed"}
{"sequence": "ALAERRLFAELVDHSVVNVHVVDKDLRWLAVNRQARHDFHLLYGRTPEIGDYLPGLFEDGTAGQTPILPMWQRALAGEQFIEIGTFGKPPAVRHYELRFNALRDPKGEVQGAFLFAYDISERVQEQERLAKAEAALRQAQKMEAVGQLSGGIAHDFNNLLGGI", "protein production": "failed"}
{"sequence": "ALPELRLEQFIITGASKRGWSAWLTAMADDRVIAIVPSVIDVADTSSMLEGLRKRYGGSWPLALWSYQAAEVLQQLGSPAFARLMALMDPMQYLDEPGARLKIPKYLVSASGDDFFAPDHATDYLQRLPGQTSLRVLPNSDHGGVRAHVVTTLVPMVQRIQASL", "protein production": "failed"}
{"sequence": "ALSDGVHKIEFEHGTTSGKRVVYVDGKEEIRKEWMFKLVGKETFYVGAAKTKATINIDAISGFAYEYTLEINGKSLKKYMEDRSKTTNTWVLHMDGENFRIVLEKDAMDVWCNGKKLETAGEFVDDGTETHFSIGNHDCYIKAVSSGKRKEGIIHTLIVDNREIPEIAS", "protein production": "failed"}
